The target of data set [1] is T1, ADR-1 WT (Caenorhabditis elegans) (UniProt Q9U3D6).
T1 sequence: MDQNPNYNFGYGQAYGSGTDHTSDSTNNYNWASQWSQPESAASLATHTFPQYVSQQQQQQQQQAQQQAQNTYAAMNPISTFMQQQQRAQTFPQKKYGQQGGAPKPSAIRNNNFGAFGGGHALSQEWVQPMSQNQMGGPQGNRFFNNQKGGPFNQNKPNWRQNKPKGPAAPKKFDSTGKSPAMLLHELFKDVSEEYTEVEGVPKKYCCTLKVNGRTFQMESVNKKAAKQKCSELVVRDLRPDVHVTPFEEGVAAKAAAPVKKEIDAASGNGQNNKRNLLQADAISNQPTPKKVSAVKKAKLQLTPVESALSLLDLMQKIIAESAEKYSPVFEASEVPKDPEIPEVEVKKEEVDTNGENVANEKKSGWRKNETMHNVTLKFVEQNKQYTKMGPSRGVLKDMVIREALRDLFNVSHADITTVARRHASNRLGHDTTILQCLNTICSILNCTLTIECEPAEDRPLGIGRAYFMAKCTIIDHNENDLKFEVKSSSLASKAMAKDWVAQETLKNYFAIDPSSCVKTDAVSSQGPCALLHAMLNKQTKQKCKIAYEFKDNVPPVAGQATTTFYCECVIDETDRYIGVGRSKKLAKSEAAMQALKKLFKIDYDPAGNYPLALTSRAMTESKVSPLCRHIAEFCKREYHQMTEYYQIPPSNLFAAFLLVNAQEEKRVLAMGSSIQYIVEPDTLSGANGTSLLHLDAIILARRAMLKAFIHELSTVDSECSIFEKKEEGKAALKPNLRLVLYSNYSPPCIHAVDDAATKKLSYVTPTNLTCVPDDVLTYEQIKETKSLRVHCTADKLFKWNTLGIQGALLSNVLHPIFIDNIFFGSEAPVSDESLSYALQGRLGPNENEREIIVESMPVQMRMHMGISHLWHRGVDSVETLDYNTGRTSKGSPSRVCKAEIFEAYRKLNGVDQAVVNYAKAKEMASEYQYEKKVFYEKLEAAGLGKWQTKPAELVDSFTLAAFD
Description: EMSA. The following applies: EMSA: 20 pM dsRNA, 50 mM KCl, 10 mM Tris-HCl pH 8.0, 10% glycerol, 1 mM MgCl2, 0.5 mM DTT, on ice 30 min; native 6% gel, 0.5x TBE, 4 C. (In general: In EMSA bound probe runs differently from free probe, usually more slowly.)

Data set [2] addresses ADR-2 WT (Caenorhabditis elegans) (UniProt Q22618). Kind of data set: EMSA. The following applies: EMSA: 20 pM dsRNA, 50 mM KCl, 10 mM Tris-HCl pH 8.0, 10% glycerol, 1 mM MgCl2, 0.5 mM DTT, on ice 30 min; native 6% gel, 0.5x TBE, 4 C.

We go through one sequence from PMC6182170.

In general, Kd refers to the constant that tells how readily two partners part at equilibrium.

ADR-2 WT (Caenorhabditis elegans), sequence (Q22618 whole entry): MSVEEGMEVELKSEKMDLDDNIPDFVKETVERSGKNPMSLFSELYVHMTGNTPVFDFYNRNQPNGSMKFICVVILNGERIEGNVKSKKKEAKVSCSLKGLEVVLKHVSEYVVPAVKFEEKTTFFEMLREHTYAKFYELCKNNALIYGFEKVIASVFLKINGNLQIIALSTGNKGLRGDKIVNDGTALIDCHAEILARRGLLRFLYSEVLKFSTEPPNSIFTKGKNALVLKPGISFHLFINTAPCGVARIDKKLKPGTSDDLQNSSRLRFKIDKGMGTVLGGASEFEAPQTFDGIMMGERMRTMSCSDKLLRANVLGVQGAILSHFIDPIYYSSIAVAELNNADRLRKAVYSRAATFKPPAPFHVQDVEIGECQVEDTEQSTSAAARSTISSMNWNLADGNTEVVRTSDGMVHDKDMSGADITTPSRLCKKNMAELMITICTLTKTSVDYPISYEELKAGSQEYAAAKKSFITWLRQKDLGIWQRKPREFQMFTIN

For “UUAUUAGGUCGGCAAAUAAUUAUUGACGUGUUUUGCCAAUUAACGAUUUUUUGUAAAUUUUAUAUGUGUCUCUUACAGUAAACCGAGAGUGUAUAAAAGCAUAUGAAUAUCAGUUGCUUUGGUCAUCUGAGUAGUAAUACGAUUCGAAAAAAUCGAAAAGUUUUUUUUCCAAUUUUUUGAGUUAGCCGUGAGAGUUG / CAACUCUUCACAGCUAACUCAAAAAAUCGCGAAAAGCAUUUUUCAAAAAAUUUUUGAUUUUUUAGAUUCUUAAUACUACGCAGGUAGCCAAAGUAGCUGAUAUUUUUAUGUUUUCAUACAUUCACAUUUUACUAUAAGACACACAUACAAAAUUUACAAAAAUUGUUAAUUGACAAAAUACGUCAAUAAUUAUUUGUCUACCUAAUAA [lam-2 3'UTR 200 bp dsRNA]”, the dissociation constant (Kd) in data set [1] was 0.43 nM; in data set [2] it was 76.3 nM.
